This note sets out measurements from the RNAGym collection of RNA variant scans (doi:10.7554/elife.80360).

To fix the notation:
B1: HDV Ribozyme (parent)
chain: GGCCGGCAUGGUCCCAGCCUCCUCGCUGGCGCCGGCUGGGCAACAUUCCGAGGGGACCGUCCCCUCGGUAAUGGCGAAUGGGACCCA

In this data set the parent is B1. The data set can be described thus: self-cleavage, relative activity (ratio to wild type); higher = more cleavage; co-transcriptional.
For C26G G67C, the self-cleavage was found to be 0.8.
The figure for G29U C32G is 0.0455; for G52U C64U it is 0.881.
The value for G28A C36A was 0.203.
Consider A45G A56G, for which the self-cleavage was found to be 0.997.
Take U9A G28A: the self-cleavage stood at 0.138.
Consider A43C U46A, for which the self-cleavage amounted to 0.877.
On to G6A A83G, for which the self-cleavage was 0.302.
The value for G2C C14U was 0.0504; that for U37G A77U was 0.138; that for G17A C44U was 0.231.
The value for U23G A70U was 0.492.
The figure for G6U G34C is 0.0405.
For the variant U23C G80C, the self-cleavage is 0.188.
The figure for G54C G59U is 1.15; for C41U C48G it is 0.955.
With C24G A56G, the self-cleavage was 0.0875.
The value for G5U C84G was 0.262.
The value for G38U G50A was 0.218.
The figure for G11A C32U is 0.133; for U23A A70U it is 0.962; for C32A C41U it is 0.143.
Take C63G C85A: the self-cleavage came out at 0.95.
The value for A16G G28A was 0.131.
The value for G53U A71C was 0.538; that for G10C G17C was 0.208; that for C7G C22G was 0.0791.
The figure for G6C G54C is 0.604; for G35A C49G it is 0.425.
As for G40U A70G, the self-cleavage was determined as 0.528.
The figure for C7G A42U is 0.0665; for A8U G59U it is 1.04.
The figure for C3A A83C is 0.177; for G76C G81C it is 0.0875; for G35C C75A it is 0.225.
The value for C15G C85G was 0.196; that for C15G C85U was 0.453.
With G11U C26U, the self-cleavage was 0.847.
The figure for G68U G81U is 0.197; for C32G C48A it is 0.0378; for C3U G5C it is 0.0123.
As to C19G G55C, the self-cleavage was 0.0475.
The value for C3A C13U was 0.213; that for A43C U79G was 0.227.
Turning to C64A C66G, the self-cleavage came to 0.489.
The figure for C36G U47C is 0.128.
The figure for C7A U23G is 0.19; for C21G C33G it is 0.101.
The figure for C66G C86A is 0.984; for G35C C64G it is 0.426.
In the case of C36A U60G, the self-cleavage turned out to be 0.178.
The value for U37G U47G was 0; that for A8C G80C was 0.133.
The value for G6A A87U was 0.602.
Turning to C22G C26G, the self-cleavage worked out at 0.
Regarding G55U C58G, the self-cleavage stood at 1.04.
The value for C33A G73C was 0.149; that for C22U U65C was 0.78; that for C24A C48A was 0.717.
Turning to C19A G53A, the self-cleavage is 0.149.
Take C7A C32A: the self-cleavage was determined as 0.332.
The value for C22A A56C was 0.312; that for A16U C44U was 0.6.
The figure for C4A U27C is 0; for A70G G80A it is 0.271.
As to C19U G29U, the self-cleavage worked out at 0.153.
As for G11A U37A, the self-cleavage is 0.0567.
The value for A8C G50A was 0.96; that for G39C G74A was 0.36.
The figure for C4G A8C is 0.0898.
The figure for A56C G67A is 1.05; for G6U G31U it is 0.121; for C30U G68C it is 0.575.
Consider C18G G38U, for which the self-cleavage amounted to 0.0386.
The figure for C26A C49U is 0.849; for C22G G35A it is 0.0615; for G1U C57A it is 0.423.
For the variant U9C G29C, the self-cleavage turned out to be 0.138.
The value for G38A C62U was 0.153; that for G2U C32G was 0; that for U72G A78G was 0.426.
The value for G29C C85A was 0.104; that for G38A A70U was 0.148; that for G2A U37G was 0.
The figure for G28A G39C is 0.106; for C3A U9G it is 0.985; for C18A A45C it is 0.208.
Regarding G38A C64A, the self-cleavage turned out to be 0.0678.
The figure for U23C C26G is 1.05; for A77U G81C it is 0.157.
The value for C30G U72C was 0.0594; that for G5A C24A was 0.0978.
For G17A A51G, the self-cleavage is 0.782.
The value for A78G C85U was 0.748; that for C21G G31U was 0; that for C3G G74C was 0.0779.
With C14G G29C, the self-cleavage amounted to 0.0665.
G52C U72C: the self-cleavage was 0.332.
The figure for C13A C61G is 0.0959; for G1A A71C it is 0.145.
The figure for C49U G68U is 0.817.
The figure for A42C C63U is 0.19.
For C48U C49U, the self-cleavage was 0.85.
The figure for C48U C49A is 1.05.
The value for C13G G80U was 0.0475.
The value for C13G G80C was 0.0997; that for G40U G54U was 0.665; that for G34A A45U was 0.16.
Regarding C44U A78G, the self-cleavage was determined as 0.242.
The figure for G11A A43G is 0.0791; for G34A G73U it is 0.0437.
As to U20A U79A, the self-cleavage came to 0.0573.
The figure for A45G G81C is 0.147; for C18G U79C it is 0.0639; for G28U A83C it is 0.0811.
Turning to G55U G80C, the self-cleavage was determined as 0.175.
Turning to G6A G10A, the self-cleavage is 0.372.
With C19G U46A, the self-cleavage turned out to be 0.
The figure for C26G G50A is 0.923; for G35A C86U it is 0.712; for C4U C32A it is 0.0906.
The value for C13U A83U was 0.185; that for C18U C61A was 0.709.
The value for G17A G81A was 0.151; that for A16C A83G was 0.877.
Consider C32G A45U, for which the self-cleavage stood at 0.142.
The value for G80A C84G was 0.161; that for G6C G80U was 0.0692; that for G6C G73U was 0.0923.
In the case of U9G C36U, the self-cleavage stood at 0.864.
The figure for C32U G40C is 0.104; for G55U G67A it is 0.881; for U37C C49G it is 1.21.
On to C13G U23A, for which the self-cleavage came out at 0.151.
For C3A A51U, the self-cleavage stood at 0.599.
The figure for G6U G82U is 0.
The value for C24A G34U was 0.0831; that for C4G U20C was 0.0791; that for U60A G67C was 1.03.
The value for G5U G55C was 0.465; that for C13U G81C was 0.249; that for A43G C85A was 0.44.
With G6A A16C, the self-cleavage is 0.111.
The figure for U12C G80U is 0.18; for C21U A45G it is 0.291; for G55C G82U it is 0.277.
The figure for G29C A77G is 0.135.
As to U23G A78G, the self-cleavage came out at 0.262.
Regarding C15A A45U, the self-cleavage was 0.475.
The value for C7U C13A was 0.124; that for A83G A87U was 0.861.
With A45G U65G, the self-cleavage is 0.782.
The value for G10C A45U was 1.11.
The value for U23C G68C was 0.727; that for G40C A83U was 0.
The value for G2A C19U was 0.
As to C15A C61U, the self-cleavage stood at 0.752.
The figure for U69C A70C is 1.23; for U12A C19U it is 0.0831; for C33G G52C it is 0.128.
The figure for G35A A43U is 0.108; for A16C A78C it is 0.166; for G6C A83G it is 0.189.
The figure for C13U C61U is 0.77; for U20G A83C it is 0.158.
With G28A G68A, the self-cleavage stood at 0.124.
The value for G38U A45G was 0.0426.
